The supplement of paper PMC10065799, “High-throughput profiling of sequence recognition by tyrosine kinases and SH2 domains using bacterial peptide display” (eLife, 2023)

Assays:
c-Src SH2 = assay: SH2 binding enrichment of the phosphorylated peptide, bacterial display (enrichment ratio); higher = better substrate or ligand; peptides without Tyr show the background
Grb2 SH2 = Grb2 SH2 (UniProt P62993); assay: as above
SHP2-C SH2 = assay: as above
MERTK = MERTK (UniProt Q12866); assay: phosphorylation enrichment, bacterial display (enrichment ratio); higher = better substrate or ligand; peptides without Tyr show the background
EPHB2 = EPHB2 (UniProt P29323); assay: as above
FGFR3 = FGFR3 (UniProt P22607); assay: as above
AncSZ = assay: as above
Fyn = Fyn (UniProt P06241); assay: as above
Hck = Hck (UniProt P08631); assay: as above
Fes = Fes (UniProt P07332); assay: as above
EPHB1 = EPHB1 (UniProt P54762); assay: as above
c-Src = assay: as above
c-Abl (mouse) = assay: as above
Jak2 = Jak2 (UniProt O60674); assay: as above
Fer (mouse) = assay: as above
FGFR1 = FGFR1 (UniProt P11362); assay: as above
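Throughout, for SH2 binding enrichment of the phosphorylated peptide, bacterial display: peptide library displayed on the E. coli surface as eCPX fusions, selected cells deep-sequenced, score is each peptide's frequency after selection divided by its frequency in the input.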
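Throughout, for phosphorylation enrichment, bacterial display: 11-residue human phosphosite peptides and single-mutation variants displayed on the E. coli surface, counted by deep sequencing, each peptide's frequency after selection divided by its frequency in the unselected input library; frequency after pTyr selection over input frequency; kinase dosed for 20-30% of maximal phosphorylation in three min.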

Sequence of Fes (P07332 whole entry, looked up): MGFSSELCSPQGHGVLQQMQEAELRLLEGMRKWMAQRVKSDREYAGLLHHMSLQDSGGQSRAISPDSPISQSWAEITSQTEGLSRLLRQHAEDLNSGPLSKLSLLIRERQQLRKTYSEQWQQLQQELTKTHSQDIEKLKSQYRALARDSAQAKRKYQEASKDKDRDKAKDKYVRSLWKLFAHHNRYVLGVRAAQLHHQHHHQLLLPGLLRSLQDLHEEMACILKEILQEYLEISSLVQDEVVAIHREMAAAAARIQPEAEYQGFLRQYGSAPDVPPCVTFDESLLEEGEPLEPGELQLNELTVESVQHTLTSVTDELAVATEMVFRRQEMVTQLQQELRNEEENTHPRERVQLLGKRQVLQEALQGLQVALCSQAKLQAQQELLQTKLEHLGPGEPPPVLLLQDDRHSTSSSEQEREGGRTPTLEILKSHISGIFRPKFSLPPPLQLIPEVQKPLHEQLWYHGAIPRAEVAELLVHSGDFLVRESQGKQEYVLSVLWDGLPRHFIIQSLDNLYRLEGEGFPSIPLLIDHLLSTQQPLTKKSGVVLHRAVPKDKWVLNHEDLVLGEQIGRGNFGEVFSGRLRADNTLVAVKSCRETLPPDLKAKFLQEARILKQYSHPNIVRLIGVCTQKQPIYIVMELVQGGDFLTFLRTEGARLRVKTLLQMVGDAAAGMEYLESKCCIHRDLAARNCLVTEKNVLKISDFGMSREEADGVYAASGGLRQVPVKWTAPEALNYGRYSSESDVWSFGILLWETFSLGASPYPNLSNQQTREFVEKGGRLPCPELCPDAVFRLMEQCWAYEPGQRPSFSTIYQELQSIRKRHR
Sequence of Fyn (P06241 whole entry, looked up): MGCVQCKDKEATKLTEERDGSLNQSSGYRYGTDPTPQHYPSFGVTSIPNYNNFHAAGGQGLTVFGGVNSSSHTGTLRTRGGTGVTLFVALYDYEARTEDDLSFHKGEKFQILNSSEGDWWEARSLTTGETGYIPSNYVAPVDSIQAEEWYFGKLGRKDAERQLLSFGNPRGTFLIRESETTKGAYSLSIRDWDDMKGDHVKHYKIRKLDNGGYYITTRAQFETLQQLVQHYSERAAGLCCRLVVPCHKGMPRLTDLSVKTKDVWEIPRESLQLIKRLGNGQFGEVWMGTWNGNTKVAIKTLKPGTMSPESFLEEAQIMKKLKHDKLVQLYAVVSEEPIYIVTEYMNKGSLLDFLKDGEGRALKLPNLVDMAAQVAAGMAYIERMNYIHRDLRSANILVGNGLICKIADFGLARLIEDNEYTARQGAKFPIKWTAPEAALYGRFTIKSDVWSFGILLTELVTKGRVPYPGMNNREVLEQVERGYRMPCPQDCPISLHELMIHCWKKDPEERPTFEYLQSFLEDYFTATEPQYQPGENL
Sequence of EPHB2 (P29323 whole entry, looked up): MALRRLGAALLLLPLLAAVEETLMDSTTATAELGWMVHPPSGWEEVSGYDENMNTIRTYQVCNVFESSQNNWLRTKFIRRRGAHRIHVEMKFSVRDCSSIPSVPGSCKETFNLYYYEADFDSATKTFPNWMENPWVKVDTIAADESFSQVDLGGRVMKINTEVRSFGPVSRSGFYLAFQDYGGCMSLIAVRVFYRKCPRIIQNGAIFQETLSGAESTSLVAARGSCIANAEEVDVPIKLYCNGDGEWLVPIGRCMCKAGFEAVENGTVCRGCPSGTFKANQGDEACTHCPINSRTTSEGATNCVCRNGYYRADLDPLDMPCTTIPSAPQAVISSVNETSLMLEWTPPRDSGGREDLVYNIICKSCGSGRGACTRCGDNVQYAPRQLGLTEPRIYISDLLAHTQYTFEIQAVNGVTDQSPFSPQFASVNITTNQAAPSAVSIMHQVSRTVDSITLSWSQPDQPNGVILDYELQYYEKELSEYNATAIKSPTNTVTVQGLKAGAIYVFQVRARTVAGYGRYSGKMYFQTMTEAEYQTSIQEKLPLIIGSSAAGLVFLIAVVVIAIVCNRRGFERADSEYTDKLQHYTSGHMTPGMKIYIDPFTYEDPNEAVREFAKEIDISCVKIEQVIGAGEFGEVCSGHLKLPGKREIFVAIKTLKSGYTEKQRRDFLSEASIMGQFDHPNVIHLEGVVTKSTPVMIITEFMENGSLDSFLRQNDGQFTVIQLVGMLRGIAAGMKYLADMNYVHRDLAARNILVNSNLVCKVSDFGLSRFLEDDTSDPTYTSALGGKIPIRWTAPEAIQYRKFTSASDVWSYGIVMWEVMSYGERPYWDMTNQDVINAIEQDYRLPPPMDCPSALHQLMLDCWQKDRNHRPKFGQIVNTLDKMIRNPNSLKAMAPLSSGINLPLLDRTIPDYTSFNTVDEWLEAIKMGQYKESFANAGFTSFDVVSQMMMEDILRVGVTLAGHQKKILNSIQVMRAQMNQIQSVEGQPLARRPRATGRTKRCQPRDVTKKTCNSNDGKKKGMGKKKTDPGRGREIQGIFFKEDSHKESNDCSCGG
Sequence of Jak2 (O60674 whole entry, looked up): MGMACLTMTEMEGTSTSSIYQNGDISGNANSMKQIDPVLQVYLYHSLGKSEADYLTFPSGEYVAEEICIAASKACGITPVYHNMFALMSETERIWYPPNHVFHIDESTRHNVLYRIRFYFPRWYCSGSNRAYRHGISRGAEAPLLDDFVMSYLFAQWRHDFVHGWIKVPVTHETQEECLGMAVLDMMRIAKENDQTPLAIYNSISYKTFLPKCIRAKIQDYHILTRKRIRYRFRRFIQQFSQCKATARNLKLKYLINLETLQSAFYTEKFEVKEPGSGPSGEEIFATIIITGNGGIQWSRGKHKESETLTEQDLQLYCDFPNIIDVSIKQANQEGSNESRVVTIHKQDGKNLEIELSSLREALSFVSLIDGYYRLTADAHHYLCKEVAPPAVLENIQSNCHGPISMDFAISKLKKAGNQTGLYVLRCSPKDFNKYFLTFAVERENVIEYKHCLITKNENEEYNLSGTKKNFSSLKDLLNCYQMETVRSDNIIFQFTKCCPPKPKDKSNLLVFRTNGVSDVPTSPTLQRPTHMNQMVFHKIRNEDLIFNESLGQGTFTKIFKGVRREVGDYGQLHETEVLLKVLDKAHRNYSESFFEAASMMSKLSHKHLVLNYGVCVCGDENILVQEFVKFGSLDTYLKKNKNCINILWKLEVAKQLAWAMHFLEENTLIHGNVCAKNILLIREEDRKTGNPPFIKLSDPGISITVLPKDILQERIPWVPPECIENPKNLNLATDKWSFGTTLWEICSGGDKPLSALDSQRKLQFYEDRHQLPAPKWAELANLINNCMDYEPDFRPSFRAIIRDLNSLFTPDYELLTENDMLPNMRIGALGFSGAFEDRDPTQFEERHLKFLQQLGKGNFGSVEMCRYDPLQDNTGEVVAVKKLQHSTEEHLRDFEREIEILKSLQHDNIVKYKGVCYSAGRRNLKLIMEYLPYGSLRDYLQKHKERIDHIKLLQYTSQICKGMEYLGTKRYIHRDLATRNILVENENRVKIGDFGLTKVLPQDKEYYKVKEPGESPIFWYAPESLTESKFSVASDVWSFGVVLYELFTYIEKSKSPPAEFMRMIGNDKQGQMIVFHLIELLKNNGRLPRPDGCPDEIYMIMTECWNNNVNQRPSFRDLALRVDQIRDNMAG
Sequence of Hck (P08631 whole entry, looked up): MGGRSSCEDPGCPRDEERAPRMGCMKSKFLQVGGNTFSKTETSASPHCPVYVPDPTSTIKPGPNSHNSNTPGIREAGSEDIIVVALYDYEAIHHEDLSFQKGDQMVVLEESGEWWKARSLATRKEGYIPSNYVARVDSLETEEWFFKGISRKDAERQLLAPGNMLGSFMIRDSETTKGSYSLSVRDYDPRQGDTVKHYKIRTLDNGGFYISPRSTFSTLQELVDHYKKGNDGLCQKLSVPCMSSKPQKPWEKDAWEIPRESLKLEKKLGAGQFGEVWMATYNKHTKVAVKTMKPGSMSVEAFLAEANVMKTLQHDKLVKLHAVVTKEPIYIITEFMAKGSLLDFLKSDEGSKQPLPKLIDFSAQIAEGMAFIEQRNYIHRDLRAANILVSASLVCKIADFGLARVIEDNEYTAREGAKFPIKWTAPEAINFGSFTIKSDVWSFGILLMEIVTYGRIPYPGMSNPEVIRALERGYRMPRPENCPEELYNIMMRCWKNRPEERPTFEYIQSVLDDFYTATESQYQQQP
Sequence of FGFR1 (P11362 whole entry, looked up, the tested form may be a part): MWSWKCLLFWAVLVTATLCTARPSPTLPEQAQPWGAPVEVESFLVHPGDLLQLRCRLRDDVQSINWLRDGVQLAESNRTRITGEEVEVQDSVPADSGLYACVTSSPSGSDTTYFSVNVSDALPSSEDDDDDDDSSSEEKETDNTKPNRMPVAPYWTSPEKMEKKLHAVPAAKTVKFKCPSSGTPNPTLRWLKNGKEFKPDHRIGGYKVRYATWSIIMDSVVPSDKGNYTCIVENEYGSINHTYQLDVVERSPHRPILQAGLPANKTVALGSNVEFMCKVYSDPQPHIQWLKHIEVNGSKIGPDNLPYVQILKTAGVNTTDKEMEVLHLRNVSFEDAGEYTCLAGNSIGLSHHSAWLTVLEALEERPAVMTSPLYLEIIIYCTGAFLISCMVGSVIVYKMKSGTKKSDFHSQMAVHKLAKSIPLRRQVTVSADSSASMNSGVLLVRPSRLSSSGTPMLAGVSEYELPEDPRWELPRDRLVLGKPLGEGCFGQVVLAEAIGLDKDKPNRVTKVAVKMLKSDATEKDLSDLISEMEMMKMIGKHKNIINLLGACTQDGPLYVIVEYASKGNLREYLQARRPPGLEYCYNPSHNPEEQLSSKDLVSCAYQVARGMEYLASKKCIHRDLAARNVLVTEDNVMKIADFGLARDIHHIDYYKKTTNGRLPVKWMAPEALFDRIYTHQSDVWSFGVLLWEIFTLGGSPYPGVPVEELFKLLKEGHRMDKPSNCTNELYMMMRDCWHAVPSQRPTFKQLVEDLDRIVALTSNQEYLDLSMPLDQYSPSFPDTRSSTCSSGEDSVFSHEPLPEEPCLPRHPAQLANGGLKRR

PASLSYLSFEG [EXOSC3_Y143]
SH2 binding enrichment (c-Src SH2): 0.696 | SH2 binding enrichment (Grb2 SH2): 0.762 | SH2 binding enrichment (SHP2-C SH2): 1.11 | phosphorylation enrichment (MERTK): 0.661 | phosphorylation enrichment (EPHB2): 0.789 | phosphorylation enrichment (FGFR3): 0.742 | phosphorylation enrichment (AncSZ): 0.942 | phosphorylation enrichment (Fyn): 0.819 | phosphorylation enrichment (Hck): 0.602 | phosphorylation enrichment (Fes): 0.954 | phosphorylation enrichment (EPHB1): 0.745 | phosphorylation enrichment (c-Src): 1.1 | phosphorylation enrichment (c-Abl (mouse)): 0.619 | phosphorylation enrichment (Jak2): 1.18 | phosphorylation enrichment (Fer (mouse)): 0.501 | phosphorylation enrichment (FGFR1): 0.591

GGYTCCCDGKK [PROS1_Y266_Y266C]
SH2 binding enrichment (c-Src SH2): 0.477 | SH2 binding enrichment (Grb2 SH2): 0.701 | SH2 binding enrichment (SHP2-C SH2): 0.415 | phosphorylation enrichment (MERTK): 0.436 | phosphorylation enrichment (EPHB2): 0.819 | phosphorylation enrichment (FGFR3): 0.618 | phosphorylation enrichment (AncSZ): 0.943 | phosphorylation enrichment (Fyn): 0.507 | phosphorylation enrichment (Hck): 0.454 | phosphorylation enrichment (Fes): 1 | phosphorylation enrichment (EPHB1): 0.442 | phosphorylation enrichment (c-Src): 0.426 | phosphorylation enrichment (c-Abl (mouse)): 0.792 | phosphorylation enrichment (Jak2): 0.729 | phosphorylation enrichment (Fer (mouse)): 0.513 | phosphorylation enrichment (FGFR1): 0.444

SGFESYGSSSF [RPA2_Y9_YF]
SH2 binding enrichment (c-Src SH2): 0.404 | SH2 binding enrichment (Grb2 SH2): 0.761 | SH2 binding enrichment (SHP2-C SH2): 0.574 | phosphorylation enrichment (MERTK): 0.348 | phosphorylation enrichment (EPHB2): 0.432 | phosphorylation enrichment (FGFR3): 0.539 | phosphorylation enrichment (AncSZ): 0.591 | phosphorylation enrichment (Fyn): 0.448 | phosphorylation enrichment (Hck): 0.481 | phosphorylation enrichment (Fes): 0.601 | phosphorylation enrichment (EPHB1): 0.433 | phosphorylation enrichment (c-Src): 0.368 | phosphorylation enrichment (c-Abl (mouse)): 0.436 | phosphorylation enrichment (Jak2): 0.436 | phosphorylation enrichment (Fer (mouse)): 0.389 | phosphorylation enrichment (FGFR1): 0.443

DVCKNYAEAKD [ALB_Y343]
SH2 binding enrichment (c-Src SH2): 1.02 | SH2 binding enrichment (Grb2 SH2): 0.739 | SH2 binding enrichment (SHP2-C SH2): 0.618 | phosphorylation enrichment (MERTK): 0.448 | phosphorylation enrichment (EPHB2): 0.561 | phosphorylation enrichment (FGFR3): 0.702 | phosphorylation enrichment (AncSZ): 1.07 | phosphorylation enrichment (Fyn): 0.509 | phosphorylation enrichment (Hck): 0.571 | phosphorylation enrichment (Fes): 1.19 | phosphorylation enrichment (EPHB1): 0.541 | phosphorylation enrichment (c-Src): 0.55 | phosphorylation enrichment (c-Abl (mouse)): 0.804 | phosphorylation enrichment (Jak2): 1.14 | phosphorylation enrichment (Fer (mouse)): 0.495 | phosphorylation enrichment (FGFR1): 0.569

DLQDENDFKCK [STAT1_Y170_Y170N]
SH2 binding enrichment (c-Src SH2): 0.43 | SH2 binding enrichment (Grb2 SH2): 0.897 | SH2 binding enrichment (SHP2-C SH2): 0.642 | phosphorylation enrichment (MERTK): 0.415 | phosphorylation enrichment (EPHB2): 0.737 | phosphorylation enrichment (FGFR3): 0.853 | phosphorylation enrichment (AncSZ): 1.42 | phosphorylation enrichment (Fyn): 0.548 | phosphorylation enrichment (Hck): 0.602 | phosphorylation enrichment (Fes): 1.86 | phosphorylation enrichment (EPHB1): 0.621 | phosphorylation enrichment (c-Src): 0.498 | phosphorylation enrichment (c-Abl (mouse)): 0.812 | phosphorylation enrichment (Jak2): 1.55 | phosphorylation enrichment (Fer (mouse)): 0.612 | phosphorylation enrichment (FGFR1): 0.568

FDNPIYQKTTE [LDLR_Y828_V827I]
SH2 binding enrichment (c-Src SH2): 0.632 | SH2 binding enrichment (Grb2 SH2): 1.03 | SH2 binding enrichment (SHP2-C SH2): 0.966 | phosphorylation enrichment (MERTK): 2.38 | phosphorylation enrichment (EPHB2): 1.18 | phosphorylation enrichment (FGFR3): 0.49 | phosphorylation enrichment (AncSZ): 0.833 | phosphorylation enrichment (Fyn): 1.1 | phosphorylation enrichment (Hck): 2.76 | phosphorylation enrichment (Fes): 0.751 | phosphorylation enrichment (EPHB1): 1.16 | phosphorylation enrichment (c-Src): 1.44 | phosphorylation enrichment (c-Abl (mouse)): 1.82 | phosphorylation enrichment (Jak2): 0.681 | phosphorylation enrichment (Fer (mouse)): 1.59 | phosphorylation enrichment (FGFR1): 0.543

CENNRYGMGTS [PDHA1_Y227]
SH2 binding enrichment (c-Src SH2): 0.44 | SH2 binding enrichment (Grb2 SH2): 0.77 | SH2 binding enrichment (SHP2-C SH2): 0.6 | phosphorylation enrichment (MERTK): 0.397 | phosphorylation enrichment (EPHB2): 0.606 | phosphorylation enrichment (FGFR3): 0.726 | phosphorylation enrichment (AncSZ): 0.991 | phosphorylation enrichment (Fyn): 0.518 | phosphorylation enrichment (Hck): 0.555 | phosphorylation enrichment (Fes): 1.36 | phosphorylation enrichment (EPHB1): 0.686 | phosphorylation enrichment (c-Src): 0.517 | phosphorylation enrichment (c-Abl (mouse)): 0.715 | phosphorylation enrichment (Jak2): 0.999 | phosphorylation enrichment (Fer (mouse)): 0.538 | phosphorylation enrichment (FGFR1): 0.548

RLQEGYDHSYY [ESD_Y258]
SH2 binding enrichment (c-Src SH2): 1.4 | SH2 binding enrichment (Grb2 SH2): 0.939 | SH2 binding enrichment (SHP2-C SH2): 1.05 | phosphorylation enrichment (MERTK): 0.597 | phosphorylation enrichment (EPHB2): 0.53 | phosphorylation enrichment (FGFR3): 0.928 | phosphorylation enrichment (AncSZ): 1.21 | phosphorylation enrichment (Fyn): 0.645 | phosphorylation enrichment (Hck): 0.611 | phosphorylation enrichment (Fes): 1.01 | phosphorylation enrichment (EPHB1): 0.717 | phosphorylation enrichment (c-Src): 1.06 | phosphorylation enrichment (c-Abl (mouse)): 1.11 | phosphorylation enrichment (Jak2): 1.05 | phosphorylation enrichment (Fer (mouse)): 0.573 | phosphorylation enrichment (FGFR1): 0.715
